Publication PMC8354235 (Journal of Virology, 2021)
Values joined by “and” are separate entries in the source; they are usually repeats but may differ in a detail not shown here. Equal values may be shown once.

B1: OKT9 antigen binding fragment (OKT9-Fab) (Fab, V domains shown)
VH: QIQLQQSGPELVKPGTSMNISCKASGYTFTNYYMHWVRQRPGQGLEWIGWIYPGDGNTHYNEKFKGKTTLTADTSSITAYMLLSSLTSEDSAVYFCARDNSGYVGFPYWGQGTLVTVSA
VL: DIVMTQSPSSLTVTAGERVTMSCKSSQSLFNSANQENYLTWYQQRPGQPPKLLIYWASTRDSGVPDRFTGSGSGTDFTLTISSVQAEDLAVYYCQNDYSYPLTFGAGTKLELK
notes: also called Fab OKT9; OKT9 variable region
B2: murine monoclonal antibody OKT9 (full-length IgG1) (antibody, V domains shown)
VH: B1 VH
VL: B1 VL
notes: also called full-length OKT9

Tests used:
[1] = target: T1, histidine-tagged soluble extracellular domain of human transferrin receptor 1 (sTfR1) from BHK cells (human, UniProt P02786); assay: BLI; settings: both partners purified
T1 construct: also called hTfR1; sTfR1-His

[2] = target: T1, histidine-tagged soluble extracellular …; assay: ELISA; settings: both partners purified

T1 sequence (P02786 89-760): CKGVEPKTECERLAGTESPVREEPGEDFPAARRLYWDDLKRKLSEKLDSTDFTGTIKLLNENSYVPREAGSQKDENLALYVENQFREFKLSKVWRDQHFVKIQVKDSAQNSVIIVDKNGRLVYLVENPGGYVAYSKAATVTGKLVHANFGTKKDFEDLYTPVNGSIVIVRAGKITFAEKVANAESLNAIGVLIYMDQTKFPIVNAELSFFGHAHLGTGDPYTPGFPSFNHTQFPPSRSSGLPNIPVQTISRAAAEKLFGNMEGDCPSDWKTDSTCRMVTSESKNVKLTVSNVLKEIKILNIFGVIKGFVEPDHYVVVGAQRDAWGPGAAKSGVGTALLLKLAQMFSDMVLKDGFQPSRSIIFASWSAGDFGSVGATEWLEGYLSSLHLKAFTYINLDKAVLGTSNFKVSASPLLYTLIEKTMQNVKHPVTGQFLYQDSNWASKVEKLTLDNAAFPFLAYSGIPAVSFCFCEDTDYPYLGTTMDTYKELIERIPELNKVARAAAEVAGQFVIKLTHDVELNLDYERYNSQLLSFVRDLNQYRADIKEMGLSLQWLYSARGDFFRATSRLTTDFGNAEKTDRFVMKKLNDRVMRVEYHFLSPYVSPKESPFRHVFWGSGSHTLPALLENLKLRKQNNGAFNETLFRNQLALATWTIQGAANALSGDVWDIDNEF

Binder	Kd [1]	koff [1]	EC50 [2]
B1	4.9 nM and 4.78 nM and 4.76 nM and 4.82 nM	0.0012 s⁻¹ and 0.00125 s⁻¹ and 0.00114 s⁻¹	3.69 nM and ~3.66 nM
B2	–	–	0.411 nM
